# Results: patent publication US20150376260A1
# Tests used:
# [1] = target: CD80 (B7.1), human, on lymphatic cancer cell lines (human) (UniProt P33681); assay: cell-based or functional assay
# [2] = target: CD86 (B7.2), human, on lymphatic cancer cell lines (human) (UniProt P42081); assay: cell-based or functional assay
# Sequence of UniProt P42081 (P42081 24-329): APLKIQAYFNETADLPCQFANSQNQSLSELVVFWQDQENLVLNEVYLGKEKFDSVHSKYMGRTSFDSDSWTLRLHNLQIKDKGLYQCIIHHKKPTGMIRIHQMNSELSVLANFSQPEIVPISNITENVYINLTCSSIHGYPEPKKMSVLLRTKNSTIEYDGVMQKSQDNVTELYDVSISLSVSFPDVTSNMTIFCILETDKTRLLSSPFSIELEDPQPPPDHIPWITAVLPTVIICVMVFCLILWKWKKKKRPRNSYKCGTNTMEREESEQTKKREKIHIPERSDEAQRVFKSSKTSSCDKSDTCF
# Sequence of UniProt P33681 (P33681 35-288): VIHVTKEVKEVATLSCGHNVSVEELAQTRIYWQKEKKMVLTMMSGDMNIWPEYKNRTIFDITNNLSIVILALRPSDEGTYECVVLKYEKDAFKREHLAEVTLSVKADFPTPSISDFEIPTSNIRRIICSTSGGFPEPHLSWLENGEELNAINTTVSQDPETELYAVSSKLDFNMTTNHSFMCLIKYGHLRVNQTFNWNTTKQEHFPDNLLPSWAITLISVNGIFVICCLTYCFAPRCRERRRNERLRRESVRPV
substance,measurement,setting,value
CTLA4-FasL fusion protein,"cancer killing activity (in-vitro bioassay, MTS cell viability) on lymphatic cancer cells",[1],0.02 nM
same,"cancer killing activity (in-vitro bioassay, MTS cell viability) on lymphatic cancer cells",[2],0.02 nM
